Data from paper PMC4119599 (Biochemistry, 2011).

Key:
[1] = target: T1, mtMenB (Mycobacterium tuberculosis, UniProt P9WNP5); experiment: not stated; assay type: binding
[2] = target: ecMenB (Escherichia coli, UniProt P0ABU0); experiment: X-ray co-crystal structure, […] Å; assay type: binding; settings: all six active sites of the hexamer; stable substrate analogue; pH 6.5
[3] = target: T1, mtMenB; experiment: X-ray co-crystal structure, […] Å; assay type: binding; settings: partial occupancy, weak density, acyl part not resolved; pH 8.0
[4] = tested on: CC(C)(COP(=O)(O)OP(=O)(O)OC[C@H]1O[C@@H](n2cnc3c(N)ncnc32)[C@H](O)[C@@H]1OP(=O)(O)O)[C@@H](O)C(=O)NCCC(=O)NCCSC(=O)CCC(=O)c1ccccc1C(=O)O; experiment: purified protein; assay type: biochemical, Escherichia coli; settings: pH 7.0; 25.0 °C
[5] = tested on: CC(C)(COP(=O)(O)OP(=O)(O)OC[C@H]1O[C@@H](n2cnc3c(N)ncnc32)[C@H](O)[C@@H]1OP(=O)(O)O)[C@@H](O)C(=O)NCCC(=O)NCCSC(=O)CCCc1ccccc1C(=O)O; experiment: purified protein; settings: pH 7.0; 25.0 °C
[6] = tested on: CC(C)(COP(=O)(O)OP(=O)(O)OC[C@H]1O[C@@H](n2cnc3c(N)ncnc32)[C@H](O)[C@@H]1OP(=O)(O)O)[C@@H](O)C(=O)NCCC(=O)NCCSC(=O)CCC(=O)c1ccccc1C(=O)O; experiment: purified protein; settings: pH 7.0; 25.0 °C

T1 sequence (P9WNP5 whole entry): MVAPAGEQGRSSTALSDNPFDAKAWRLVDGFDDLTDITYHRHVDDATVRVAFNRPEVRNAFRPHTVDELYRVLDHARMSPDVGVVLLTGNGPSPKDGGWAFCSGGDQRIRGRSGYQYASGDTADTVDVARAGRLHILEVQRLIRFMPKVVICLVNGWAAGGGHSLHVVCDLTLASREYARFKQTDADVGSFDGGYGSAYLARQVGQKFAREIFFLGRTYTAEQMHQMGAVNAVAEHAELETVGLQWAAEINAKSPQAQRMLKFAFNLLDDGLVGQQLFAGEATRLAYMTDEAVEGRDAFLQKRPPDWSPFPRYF
Chain of ecMenB (P0ABU0 whole entry): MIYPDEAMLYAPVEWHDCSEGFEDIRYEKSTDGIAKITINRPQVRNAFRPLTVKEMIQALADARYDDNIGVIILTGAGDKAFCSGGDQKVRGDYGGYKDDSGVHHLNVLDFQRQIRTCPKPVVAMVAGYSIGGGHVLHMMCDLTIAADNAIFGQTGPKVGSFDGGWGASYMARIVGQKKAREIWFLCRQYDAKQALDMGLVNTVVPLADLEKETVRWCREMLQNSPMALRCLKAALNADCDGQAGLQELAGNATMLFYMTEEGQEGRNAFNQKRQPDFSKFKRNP

## COC(=O)c1ccccc1C(=O)CCC(=O)SCCNC(=O)CCNC(=O)[C@H](O)C(C)(C)COP(=O)(O)OP(=O)(O)OC[C@H]1O[C@@H](n2cnc3c(N)ncnc32)[C@H](O)[C@@H]1OP(=O)(O)O [OSB-CoA methyl ester]
[1]
  Kd: 11.5 ± 1.2 µM

## CC(C)(COP(=O)(O)OP(=O)(O)OC[C@H]1O[C@@H](n2cnc3c(N)ncnc32)[C@H](O)[C@@H]1OP(=O)(O)O)[C@@H](O)C(=O)NCCC(=O)NCCNC(=O)CCC(=O)c1ccccc1C(=O)O [OSB-NCoA]
[2]
  X-ray co-crystal structure, 2.00 Å: In the structure of OSB-NCoA bound to ecMenB, the ligand can be observed in all six
[3]
  X-ray co-crystal structure, 2.25 Å: Density for OSB-NCoA can be observed but is weak in chain C

## (Escherichia coli K-12)
[4]
  Km: 25.9 ± 3.3 µM

## (Mycobacterium tuberculosis H37Rv)
[5]
  Km: 106 ± 31 µM
  kcat/Km: 2.4 ± 0.7 M⁻¹ s⁻¹
[6]
  Km: 22.4 ± 2.1 µM
